The values below come from US20210070881A1 (DENALI THERAPEUTICS, published 2021).

Where a chain is given by its changes, count along the chain named.

For orientation: Kd means a measure of binding affinity in units of concentration. As usually defined, the koff is the first-order rate constant of dissociation. Usually kon stands for the rate constant with which the complex forms. For orientation: IC50 means the midpoint of a concentration-inhibition curve.

The labels stand for the following.
B1: 2H8.32 (antibody, human IgG1, V domains shown)
VH: EVQLQQPGTELVRPGTSVKLSCKASGYTFTNYWMHWIKQRPGQGLEWIGMIDPSDTYTKFNQNFKGKATLTVDTSSSTAYMQLNSLTSEDSAVYYCARSGVAFPYWGQGTTVTVSS
VL: DIQMTQSQKFMSKSVGDRVSVTCKASQNVGSNVAWYQQKSGQSPKSLIYSASHRYSGVPDRFTGSGSGTDFTLTISNVQSEDLADYFCQQYNSYPYTFGGGTRLEIK
notes: human IgG1/kappa; also called 2H8_HCvar2 + 2H8_LCvar6
B2: 2H8.39 (antibody, human IgG1, V domains shown)
VH: EVQLQQSGAELVRPGTSVKLSCKASGYTFTSYWIHWVKQRPGQGLEWIGMIDPSDSYTKYNQKFKDKATLTVDTSSSTTYMHLSSLTSEDSAVYYCARSGVAFPYWGQRTLVTVSA
VL: B1 VL with Q3L, K13T, S31R, K39I, S46P, A84V, D85E, Y86F, R103K
notes: human IgG1/kappa; also called 2H8_HCvar3 + 2H8_LCvar7
B3: 2H8.04 (antibody, human IgG1, V domains shown)
VH: B1 VH with V2I, P7S, I37V, D55A, T56A, K59N, F60Y, S77G, N84S
VL: B1 VL with Q3V, R18T, N28D, S31R
notes: human IgG1/kappa; also called 2H8_HCvar4 + 2H8_LC
B4: 2H8.35 (antibody, human IgG1, V domains shown)
VH: EVQLQQPGAEVVRPGTSVKLSCKASGYTFTNYWMHWVKQRPGQGLEWIGMIDPSDNYTKYNQKLKGKATLTVDTSSSTANMHVNSLTSEDSAVYFCARSGVAFPYWGQGTLVTVSA
VL: B1 VL
notes: human IgG1/kappa; also called 2H8_HCvar5 + 2H8_LCvar6
B5: 2H8.42 (antibody, human IgG1, V domains shown)
VH: EVQLQQSGAELVRPGTSVKLSCKASGYTFNNYWMHWVKQRPGQGLEWIGMIDPSDDDIKNNQKFKGKATLTVDTSSSTAYMQLISLTSEDSAVYYCARSGVALPYWGQGTLVTVSA
VL: B1 VL with Q3L, K13T, S31R, K39I, S46P, A84V, D85E, Y86F, R103K
notes: human IgG1/kappa; also called 2H8_HCvar6 + 2H8_LCvar7
B6: 2H8.41 (antibody, human IgG1, V domains shown)
VH: B4 VH
VL: B1 VL with Q3L, K13T, S31R, K39I, S46P, A84V, D85E, Y86F, R103K
notes: human IgG1/kappa; also called 2H8_HCvar5 + 2H8_LCvar7
B7: 2H8.05 (antibody, human IgG1, V domains shown)
VH: B4 VH
VL: B1 VL with Q3V, R18T, N28D, S31R
notes: human IgG1/kappa; also called 2H8_HCvar5 + 2H8_LC
B8: hu2H8v29.12 (antibody, V domains shown)
VH: QVQLVQSGAEVKKPGASVKVSCKASGYTFNNFWIHWVRQAPGQGLEWMGMIDPSDSYTKYNQKFKARATLTVDTSTSTVYMELSSLRSEDTAVYYCARSGVAFPYWGQGTLVTVSS
VL: DIQMTQSPSSLSASVGDRVTITCKASQDVGRNVAWYQQKPGKSPKSLIYSASHRYSGVPSRFSGSGSGTDFTLTISSLQPEDFATYFCQQYNSYPYTFGQGTKVEIK
notes: captured via human Fc; also called hu2H8_LC5 + hu2H8_HC6.1
B9: hu2H8v29.16 (antibody, V domains shown)
VH: B8 VH with N30T, M50I
VL: B8 VL
notes: captured via human Fc; also called hu2H8_LC5 + hu2H8_HC6.5
B10: hu2H8v29.26 (antibody, V domains shown)
VH: B8 VH with N30T, V101G, F103L
VL: B8 VL
notes: captured via human Fc; also called hu2H8_LC5 + hu2H8_HC6.15
B11: hu2H8v29.27 (antibody, V domains shown)
VH: B8 VH with N30T, D55S, V101A, A102S, F103L
VL: B8 VL with R54Y, N92Y
notes: captured via human Fc; also called hu2H8_LC5.12 + hu2H8_HC6.16
B12: hu2H8v29.15 (antibody, V domains shown)
VH: B8 VH with N30T, W33Y
VL: B8 VL
notes: captured via human Fc; also called hu2H8_LC5 + hu2H8_HC6.4
B13: hu2H8v29.28 (antibody, V domains shown)
VH: B8 VH with N30T, S54D, D55S, V101A, A102S, F103L
VL: B8 VL with R54Y, N92Y
notes: captured via human Fc; also called hu2H8_LC5.12 + hu2H8_HC6.17
B14: hu2H8v29.18 (antibody, V domains shown)
VH: B8 VH with N30T, D55E
VL: B8 VL
notes: captured via human Fc; also called hu2H8_LC5 + hu2H8_HC6.7
B15: hu2H8v29.25 (antibody, V domains shown)
VH: B8 VH with N30T, V101A, F103L
VL: B8 VL
notes: captured via human Fc; also called hu2H8_LC5 + hu2H8_HC6.14
B16: hu2H8v29.19 (antibody, V domains shown)
VH: B8 VH with N30T, D55G
VL: B8 VL
notes: captured via human Fc; also called hu2H8_LC5 + hu2H8_HC6.8
B17: hu2H8v29.13 (antibody, V domains shown)
VH: B8 VH with N30T, F32Y
VL: B8 VL
notes: captured via human Fc; also called hu2H8_LC5 + hu2H8_HC6.2
B18: hu2H8v29.22 (antibody, V domains shown)
VH: B8 VH with N30T, F103L, Y105S
VL: B8 VL
notes: captured via human Fc; also called hu2H8_LC5 + hu2H8_HC6.11
B19: hu2H8v29.24 (antibody, V domains shown)
VH: B8 VH with N30T, V101A, A102S, F103L
VL: B8 VL
notes: captured via human Fc; also called hu2H8_LC5 + hu2H8_HC6.13
B20: hu2H8v29.17 (antibody, V domains shown)
VH: B8 VH with N30T, D55S
VL: B8 VL
notes: captured via human Fc; also called hu2H8_LC5 + hu2H8_HC6.6
B21: hu2H8v29.20 (antibody, V domains shown)
VH: B8 VH with N30T, S56A
VL: B8 VL
notes: captured via human Fc; also called hu2H8_LC5 + hu2H8_HC6.9
B22: hu2H8v29.21 (antibody, V domains shown)
VH: B8 VH with N30T, F103L
VL: B8 VL
notes: captured via human Fc; also called hu2H8_LC5 + hu2H8_HC6.10
B23: hu2H8v29.14 (antibody, V domains shown)
VH: B8 VH with N31S, F32Y
VL: B8 VL
notes: captured via human Fc; also called hu2H8_LC5 + hu2H8_HC6.3
B24: hu2H8v29.23 (antibody, V domains shown)
VH: B8 VH with N30T, A102S, F103L
VL: B8 VL
notes: captured via human Fc; also called hu2H8_LC5 + hu2H8_HC6.12

The target in the first assay is T1, recombinant BACE1 (BACE1 extracellular domain, R&D Systems Cat#931-AS) (UniProt P56817 22-457).
T1 construct: extracellular domain; also called BACE1 extracellular domain protein
T1 sequence (P56817 22-457): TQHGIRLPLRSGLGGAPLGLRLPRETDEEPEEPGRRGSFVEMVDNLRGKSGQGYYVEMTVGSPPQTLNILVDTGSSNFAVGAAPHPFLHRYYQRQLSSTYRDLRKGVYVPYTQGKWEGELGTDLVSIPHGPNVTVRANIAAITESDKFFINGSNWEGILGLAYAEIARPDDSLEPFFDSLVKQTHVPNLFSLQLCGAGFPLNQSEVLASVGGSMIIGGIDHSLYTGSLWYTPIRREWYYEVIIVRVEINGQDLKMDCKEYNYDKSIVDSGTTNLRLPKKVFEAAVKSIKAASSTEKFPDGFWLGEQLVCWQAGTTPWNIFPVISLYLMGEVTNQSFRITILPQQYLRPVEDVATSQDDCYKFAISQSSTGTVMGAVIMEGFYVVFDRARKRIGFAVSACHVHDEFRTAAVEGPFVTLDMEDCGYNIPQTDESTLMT
As to the kind of experiment: SPR Biacore. In general terms: Surface plasmon resonance follows binding to a sensor surface in real time, without labels.
B1: the Kd was 11.4 nM, the koff is 0.000172 s⁻¹ and the kon was determined as 15100 M⁻¹ s⁻¹.
In the same order, the values of B2 are 13 nM, 0.000217 s⁻¹ and 16600 M⁻¹ s⁻¹.
As to B3, the Kd came to 15.6 nM, the koff turned out to be 0.000362 s⁻¹ and the kon worked out at 23300 M⁻¹ s⁻¹.
On to B4, for which the Kd amounted to 15.2 nM, the koff is 0.000171 s⁻¹ and the kon turned out to be 11200 M⁻¹ s⁻¹.
In the same order, the values of B5 are 11.6 nM, 0.000221 s⁻¹ and 19000 M⁻¹ s⁻¹.
For B6, the Kd stood at 10.7 nM, the koff was 0.000197 s⁻¹ and the kon is 18500 M⁻¹ s⁻¹.
Regarding B7, the Kd was 13.7 nM, the koff amounted to 0.000251 s⁻¹ and the kon worked out at 18300 M⁻¹ s⁻¹.

Another assay addresses cellular BACE1 in CHOK1-huAPP cells. As to the kind of experiment: cell-based or functional assay.
For B1, the “IC50” value turned out to be 61 nM and the Max. % inhibition is 86%.
In the same order, the values of B2 are 43 nM and 86%.
Consider B3, for which the “IC50” value was determined as 26 nM and the Max. % inhibition was found to be 82%.
In the same order, the values of B4 are 41 nM and 85%.
The matching figures for B5: 53 nM and 97%.
Regarding B6, the “IC50” value came to 36 nM and the Max. % inhibition was 86%.
In the same order, the values of B7 are 44 nM and 87%.

Another assay has as its target T1, recombinant BACE1 (BACE1 extracellular …). As to the kind of experiment: SPR Biacore 8K, antibody captured, BACE1 analyte. The procedure:
The binding affinities of the affinity matured humanized 2H8 variants for BACE1 were determined by surface plasmon resonance using a Biacore™ 8K instrument. […] The binding was monitored for 300 seconds and then dissociation was monitored for 600+ seconds in HBS-EP+ running buffer (GE Healthcare Life Sciences, BR100669). Binding response was corrected by subtracting the RU from a blank flow cell. A 1:1 Langmuir model of simultaneous fitting of kₒₙ and koff was used for kinetics analysis.
Regarding B8, the Kd amounted to 8.42 nM.
The same measure, in the same setting: under B9 stands 31.3 nM.
In the case of B10, the Kd was found to be 8.52 nM.
With B11, the Kd amounted to 3.4 nM.
The same measure, in the same setting: under B12 stands 19.2 nM.
B13: the Kd stood at 4.8 nM.
Same read-out and setting: with B14 the figure was 10.3 nM.
Consider B15, for which the Kd came to 6.08 nM.
For the molecule B16, the Kd was 9.95 nM.
Still for that read-out and setting: under B17 stands 9.16 nM; under B18, 6 nM; under B19, 5.73 nM.
With B20, the dissociation constant Kd stood at 8.04 nM.
Regarding B21, the Kd was found to be 8.69 nM.
Still for that read-out and setting: with B22 the figure was 6.68 nM.
On the same count and under the same terms, under B23 stands 9.32 nM; under B24, 7 nM.
